Source: patent US20100003756

Legend:
Test in all cases: cell_activity
[1] = system: ZFN SBS 17627 (BAK) (synthetic); conditions: pair 17627/17626, MDCK cells, CEL-I/Surveyor
[2] = system: ZFN SBS 10077 (BAX) (synthetic); conditions: BAX ZFNs of Table 1 (pair 10077/10079 inferred), Bak-deficient CHO, 21 of 79 clones Bsl I assay
[3] = system: ZFN SBS 17659 (BAX) (synthetic); conditions: pair 17658/17659, MDCK cells, CEL-I/Surveyor
[4] = system: ZFN SBS 17623 (BAK) (synthetic); conditions: pair 17622/17623, MDCK cells, CEL-I/Surveyor
[5] = system: ZFN SBS 17626 (BAK) (synthetic); conditions: pair 17627/17626, MDCK cells, CEL-I/Surveyor
[6] = system: ZFN SBS 17622 (BAK) (synthetic); conditions: pair 17622/17623, MDCK cells, CEL-I/Surveyor
[7] = system: ZFN SBS 17658 (BAX) (synthetic); conditions: pair 17658/17659, MDCK cells, CEL-I/Surveyor
[8] = system: ZFN SBS 10079 (BAX) (synthetic); conditions: BAX ZFNs of Table 1 (pair 10077/10079 inferred), Bak-deficient CHO, 21 of 79 clones Bsl I assay

In the case of “AGGGGTGGCTGGGTAG (double strand) [BAK 17627 half-site]”, the activity (% alleles modified) [1] was 1.1.

“CAGGGTGGCTGG (double strand) [BAX 10077 half-site]” showed an activity (% clones modified) [2] of 27.

“GGTTGGGTGAGGCCTG (double strand) [BAX 17659 half-site]” gave an activity (% alleles modified) [3] of 8.

Work on “CCGGTGGATCGCGCAGAG (double strand) [BAK 17623 half-site]” yielded an activity (% alleles modified) [4] of 3.7.

“GATCCACCGGGCAATGCA (double strand) [BAK 17626 half-site]” gave an activity (% alleles modified) [5] of 1.1.

For “AATGATGCAGCATGA (double strand) [BAK 17622 half-site]”, the activity (% alleles modified) [6] was 3.7.

Sequence “GTCCTGGATCCAGCC (double strand) [BAX 17658 half-site]” has an activity (% alleles modified) [7] of 8.

Sequence “GATCCAGACAAG (double strand) [BAX 10079 half-site]” has an activity (% clones modified) [8] of 27.
